Sequences and labels used below:
B1: ATP-dependent DNA helicase II subunit 2 (Saccharomyces cerevisiae), Q04437 (parent)
chain: MSSESTTFIVDVSPSMMKNNNVSKSMAYLEYTLLNKSKKSRKTDWISCYLANCPVSENSQEIPNVFQIQSFLAPVTTTATIGFIKRLKQYCDQHSHDSSNEGLQSMIQCLLVVSLDIKQQFQARKILKQIVVFTDNLDDLDITDEEIDLLTEELSTRIILIDCGKDTQEERKKSNWLKLVEAIPNSRIYNMNELLVEITSPATSVVKPVRVFSGELRLGADILSTQTSNPSGSMQDENCLCIKVEAFPATKAVSGLNRKTAVEVEDSQKKERYVGVKSIIEYEIHNEGNKKNVSEDDQSGSSYIPVTISKDSVTKAYRYGADYVVLPSVLVDQTVYESFPGLDLRGFLNREALPRYFLTSESSFITADTRLGCQSDLMAFSALVDVMLENRKIAVARYVSKKDSEVNMCALCPVLIEHSNINSEKKFVKSLTLCRLPFAEDERVTDFPKLLDRTTTSGVPLKKETDGHQIDELMEQFVDSMDTDELPEIPLGNYYQPIGEVTTDTTLPLPSLNKDQEENKKDPLRIPTVFVYRQQQVLLEWIHQLMINDSREFEIPELPDSLKNKISPYTHKKFDSTKLVEVLGIKKVDKLKLDSELKTELEREKIPDLETLLKRGEQHSRGSPNNSNN

In this assay the parent is B1. The conditions noted are these: with sir4_yeast SIR4, P11978.
sir4_yeast SIR4, P11978, sequence (P11978 whole entry): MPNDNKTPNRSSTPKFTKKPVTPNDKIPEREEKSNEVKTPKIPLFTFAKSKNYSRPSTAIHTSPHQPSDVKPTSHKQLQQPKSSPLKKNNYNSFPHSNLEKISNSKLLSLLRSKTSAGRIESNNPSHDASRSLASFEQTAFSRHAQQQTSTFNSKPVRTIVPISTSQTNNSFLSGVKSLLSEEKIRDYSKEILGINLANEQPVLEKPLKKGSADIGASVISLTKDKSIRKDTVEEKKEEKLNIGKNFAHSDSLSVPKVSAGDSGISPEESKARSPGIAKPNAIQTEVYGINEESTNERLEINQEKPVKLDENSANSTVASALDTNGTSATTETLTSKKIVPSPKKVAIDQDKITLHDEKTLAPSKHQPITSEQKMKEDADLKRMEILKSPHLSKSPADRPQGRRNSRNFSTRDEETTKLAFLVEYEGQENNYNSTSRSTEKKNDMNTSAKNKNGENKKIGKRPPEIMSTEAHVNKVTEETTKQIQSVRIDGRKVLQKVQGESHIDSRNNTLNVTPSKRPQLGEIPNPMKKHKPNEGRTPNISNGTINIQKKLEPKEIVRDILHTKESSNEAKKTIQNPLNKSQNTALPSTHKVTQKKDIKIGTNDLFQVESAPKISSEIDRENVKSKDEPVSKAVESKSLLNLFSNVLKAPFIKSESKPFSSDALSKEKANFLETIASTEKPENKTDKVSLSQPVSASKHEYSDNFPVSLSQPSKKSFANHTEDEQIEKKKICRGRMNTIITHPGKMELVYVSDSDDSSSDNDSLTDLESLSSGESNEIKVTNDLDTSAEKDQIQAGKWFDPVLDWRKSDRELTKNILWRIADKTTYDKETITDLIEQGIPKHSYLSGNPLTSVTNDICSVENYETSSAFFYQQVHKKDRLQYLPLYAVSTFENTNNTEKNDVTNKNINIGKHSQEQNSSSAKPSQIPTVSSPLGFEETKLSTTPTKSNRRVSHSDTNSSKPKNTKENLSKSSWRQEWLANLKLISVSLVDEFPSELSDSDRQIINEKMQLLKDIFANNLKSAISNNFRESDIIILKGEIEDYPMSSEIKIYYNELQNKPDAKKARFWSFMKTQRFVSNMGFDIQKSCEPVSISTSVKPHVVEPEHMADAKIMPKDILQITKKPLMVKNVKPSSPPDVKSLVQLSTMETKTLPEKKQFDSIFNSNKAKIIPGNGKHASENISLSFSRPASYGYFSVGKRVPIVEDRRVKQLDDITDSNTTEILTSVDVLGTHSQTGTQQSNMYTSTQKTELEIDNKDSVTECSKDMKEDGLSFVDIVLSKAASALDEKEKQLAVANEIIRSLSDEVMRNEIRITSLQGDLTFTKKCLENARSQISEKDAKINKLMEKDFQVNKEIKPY
As to P437A;F438A, the “effect of a mutation on the interaction” value is on record as “decreasing interaction”.
For the variant D441G, the “effect of a mutation on the interaction” value is recorded as “decreasing interaction”.

The record behind these values is IntAct's records for PubMed 14551211.
